Measured values reported in paper PMC12737591.

Target: recombinant prefusion F protein of RSV (rpF5), ectodomain fused with a T4 fibritin foldon trimerization domain (respiratory syncytial virus, subgroup A2 | bacteriophage T4) (UniProt P03420)
Experiment: SDS-PAGE under reducing and non-reducing conditions; 10% gel, Coomassie blue staining; band of approximately 195 kDa under non-reducing and approximately 65 kDa under reducing conditions

“recombinant prefusion F protein of RSV (rpF5), ectodomain fused with a T4 fibritin foldon trimerization domain (from UniProt P03420 26-513) (domain or fragment)” was tested, and the stoichiometry N was 3.
